Earlier results as cited in paper PMC11417995.
One block for each substance: values may come before it.

Columns and labels:
ubiquitin (Homo sapiens) [1] = target: ubiquitin (Homo sapiens) (UniProt P0CG47); experiment: SPR
ubiquitin (Homo sapiens) [2] = target: ubiquitin (Homo sapiens) (UniProt P0CG47); experiment: NMR
ubiquitin (Homo sapiens) [3] = target: ubiquitin (Homo sapiens) (UniProt P0CG47); experiment: TR-FRET

Chain of UBE2K (P61086 2-200): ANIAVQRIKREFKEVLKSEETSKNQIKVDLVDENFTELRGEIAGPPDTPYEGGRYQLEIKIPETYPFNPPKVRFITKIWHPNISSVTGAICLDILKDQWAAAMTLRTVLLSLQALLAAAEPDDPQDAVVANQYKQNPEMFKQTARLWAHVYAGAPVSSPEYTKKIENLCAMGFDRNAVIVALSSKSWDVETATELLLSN
Chain of UBE2K UBA (P61086 157-200): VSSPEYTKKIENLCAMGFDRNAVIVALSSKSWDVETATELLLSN
Chain of CDC34A (P49427 whole entry): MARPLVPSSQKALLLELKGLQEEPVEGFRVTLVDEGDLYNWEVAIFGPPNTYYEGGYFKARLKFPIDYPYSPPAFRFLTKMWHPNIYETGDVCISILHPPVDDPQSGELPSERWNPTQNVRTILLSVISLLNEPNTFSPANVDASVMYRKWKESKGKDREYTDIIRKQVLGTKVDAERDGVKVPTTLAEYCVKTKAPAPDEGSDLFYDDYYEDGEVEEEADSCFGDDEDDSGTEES

- Kd (ubiquitin (Homo sapiens) [1]): 400 µM
Substance: UBE2K UBA (from UniProt P61086)

- Kd (ubiquitin (Homo sapiens) [2]): 1250 µM
Substance: UBE2K (from UniProt P61086)

- Kd (ubiquitin (Homo sapiens) [3]): 14 µM
Substance: CDC34A (from UniProt P49427)
